Results published in article PMC11320570.

What was measured:
Assay in all cases: ELISA
3H5 mouse antibody = target: 3H5 mouse antibody
[1] = target: 513 engineered and humanized antibody
2H12 mouse antibody = target: 2H12 mouse antibody

Row | Substance | Kd (3H5 mouse antibody) [nM] | Kd [1] [nM] | Kd (2H12 mouse antibody) [nM]
1 | DENV-2 EDIII wild-type Fc-fusion antigen S298N; S300T | 0.82 | 0.075 | 0.71
2 | DENV-2 EDIII wild-type Fc-fusion antigen S298N; S300T; H317N | 0.82 | 0.081 | –
3 | DENV-2 EDIII wild-type Fc-fusion antigen S298N; S300T; V309N; E311T; H317N | 0.78 | > 0.265 | –
